Literature values as cited in PMC6151437, “Antibacterial Synthetic Peptides Derived from Bovine Lactoferricin Exhibit Cytotoxic Effect against MDA-MB-468 and MDA-MB-231 Breast Cancer Cell Lines” (Molecules : A Journal of Synthetic Chemistry and Natural …, 2017).

Test system: HT-29 cells
Set-up: method as in PMID 24140317
Details: maximum effects at 12 h of treatment

B1: BLF: Bovine lactoferrin, a milk protein (protein, UniProt P24627 20-708, looked up)
Lactotransferrin: APRKNVRWCTISQPEWFKCRRWQWRMKKLGAPSITCVRRAFALECIRAIAEKKADAVTLDGGMVFEAGRDPYKLRPVAAEIYGTKESPQTHYYAVAVVKKGSNFQLDQLQGRKSCHTGLGRSAGWIIPMGILRPYLSWTESLEPLQGAVAKFFSASCVPCIDRQAYPNLCQLCKGEGENQCACSSREPYFGYSGAFKCLQDGAGDVAFVKETTVFENLPEKADRDQYELLCLNNSRAPVDAFKECHLAQVPSHAVVARSVDGKEDLIWKLLSKAQEKFGKNKSRSFQLFGSPPGQRDLLFKDSALGFLRIPSKVDSALYLGSRYLTTLKNLRETAEEVKARYTRVVWCAVGPEEQKKCQQWSQQSGQNVTCATASTTDDCIVLVLKGEADALNLDGGYIYTAGKCGLVPVLAENRKSSKHSSLDCVLRPTEGYLAVAVVKKANEGLTWNSLKDKKSCHTAVDRTAGWNIPMGLIVNQTGSCAFDEFFSQSCAPGADPKSRLCALCAGDDQGLDKCVPNSKEKYYGYTGAFRCLAEDVGDVAFVKNDTVWENTNGESTADWAKNLNREDFRLLCLDGTRKPVTEAQSCHLAVAPNHAVVSRSDRAAHVKQVLLHQQALFGKNGKNCPDKFCLFKSETKNLLFNDNTECLAKLGGRPTYEEYLGTEYVTAIANLKKCSTSPLLEACAFLTR
  optimal concentration for cytotoxic activity and apoptosis: 800 µg/mL
